Assay results as given in patent publication US20230346885A1 (published 2023).
One block for each binder: values may come before it.

Experiments:
Test in all cases: binding, other
PIWIL1 peptide on HLA [1] = target: T1, PIWIL1 peptide on HLA (human)
T1 peptide: SLIQNLFKV

PIWIL1 peptide on HLA [2] = target: T2, PIWIL1 peptide on HLA (human)
T2 peptide: SIAGFVASI

PAEP peptide on HLA [3] = target: T3, PAEP peptide on HLA (human)
T3 peptide: MMCQYLARV

PAEP peptide on HLA [4] = target: T4, PAEP peptide on HLA (human)
T4 peptide: TLLDTDYDNFL

SMC1B peptide on HLA = target: T5, SMC1B peptide on HLA (human)
T5 peptide: ALDNTNIGKV

SLC45A2 peptide on HLA = target: T6, SLC45A2 peptide on HLA (human)
T6 peptide: YVTPVLLSV

RLN1 peptide on HLA = target: T7, RLN1 peptide on HLA (human)
T7 peptide: ALSERQPSL

PIWIL1 peptide on HLA [5] = target: T8, PIWIL1 peptide on HLA (human)
T8 peptide: SLSNRLYYL

XAGE1 peptide on HLA = target: T9, XAGE1 peptide on HLA (human)
T9 peptide: KMPEAGEEQPQV

B2: TCR of SEQ ID NOs 511 and 512 (TCR, V domains shown)
Valpha: KQEVTQIPVALSVPEGENLVLNCSFTDSAIYNLQWFRQDPGKGLTSLLLIQSSQREQTSGRLNASLDKSSGRSTLYIAASQPGDSATYLCAVSPYNNNDMRFGAGTRLTVKP
Vbeta: NAGVTQTPKFQVLKTGQSMTLLCAQDMNHEYMYWYRQDPGMGLRLIHYSVGEGTTDKGEVPNGYNVSRSTTEDFPLRLLSAAPSQTSVYFCASSFTGDSPLHFGNGTRLTVT
- binding result (PIWIL1 peptide on HLA [2]): recognises

B3: TCR of SEQ ID NOs 507 and 508 (TCR, V domains shown)
Valpha: QKEVEQNSGPLSVPEGAIASLNCTYSDRGSQSFFWYRQYSGKSPELIMFIYSNGDKEDGRFTAQLNKASQYVSLLIRDSQPSDSATYLCAVKTSYDKVIFGPGTSLSVIP
Vbeta: NAGVTQTPKFQVLKTGQSMTLQCAQDMNHEYMSWYRQDPGMGLRLIHYSVGAGITDQGEVPNGYNVSRSTTEDFPLRLLSAAPSQTSVYFCASSYGAGAFYTFGSGTRLTVV
- binding result (PIWIL1 peptide on HLA [1]): recognises

B5: TCR of SEQ ID NOs 481 and 482 (TCR, V domains shown)
Valpha: KQEVTQIPAALSVPEGENLVLNCSFTDSAIYNLQWFRQDPGKGLTSLLLIQSSQREQTSGRLNASLDKSSGRSTLYIAASQPGDSATYLCAATDSWGKLQFGAGTQVVVTP
Vbeta: DTGVSQNPRHKITKRGQNVTFRCDPISEHNRLYWYRQTLGQGPEFLTYFRNEAQLEKSRLLSDRFSAERPKGSFSTLEIQRTEQGDSAMYLCASSLFSRGTNYGYTFGSGTRLTVV
- binding result (PAEP peptide on HLA [4]): recognises

B8: TCR of SEQ ID NOs 581 and 582 (TCR, V domains shown)
Valpha: KQEVTQIPAALSVPEGENLVLNCSFTDSAIYNLQWFRQDPGKGLTSLLLIQSSQREQTSGRLNASLDKSSGRSTLYIAASQPGDSATYLCAVFNDYKLSFGAGTTVTVRA
Vbeta: NAGVTQTPKFQVLKTGQSMTLQCAQDMNHEYMSWYRQDPGMGLRLIHYSVGAGITDQGEVPNGYNVSRLNKREFSLRLESAAPSQTSVYFCASSEWFDTEAFFGQGTRLTVV
- binding result (SMC1B peptide on HLA): recognises

B9: TCR of SEQ ID NOs 575 and 576 (TCR, V domains shown)
Valpha: KQEVTQIPAALSVPEGENLVLNCSFTDSAIYNLQWFRQDPGKGLTSLLLIQSSQREQTSGRLNASLDKSSGRSTLYIAASQPGDSATYLCAALSYNTDKLIFGTGTRLQVFP
Vbeta: NAGVTQTPKFQVLKTGQSMTLQCAQDMNHNSMYWYRQDPGMGLRLIYYSASEGTTDKGEVPNGYNVSRLNKREFSLRLESAAPSQTSVYFCASSEAYLAAFFGQGTRLTVV
- binding result (SLC45A2 peptide on HLA): recognises

B10: TCR of SEQ ID NOs 523 and 524 (TCR, V domains shown)
Valpha: QKEVEQNSGPLSVPEGAIASLNCTYSDRGSQSFFWYRQYSGKSPELIMSIYSNGDKEDGRFTAQLNKASQYVSLLIRDSQPSDSATYLCAVNAGGTSYGKLTFGQGTILTVHP
Vbeta: NAGVTQTPKFRVLKTGQSMTLQCAQDMNHNSMYWYRQDPGMGLRLIYYSASEGTTDKGEVPNGYNVSRLNKREFSLRLESAAPSQTSVYFCASSEIDVWYNSPLHFGNGTRLTVT
- binding result (RLN1 peptide on HLA): recognises

B11: TCR of SEQ ID NOs 585 and 586 (TCR, V domains shown)
Valpha: KQEVTQIPAALSVPEGENLVLNCSFTDSAIYNLQWFRQDPGKGLTSLLLIQSSQREQTSGRLNASLDKSSGRSTLYIAASQPGDSATYLCAVRGAGGTSYGKLTFGQGTILTVHP
Vbeta: NAGVTQTPKFQVLKTGQSMTLQCAQDMNHNSMYWYRQDPGMGLRLIYYSASEGTTDKGEVPNGYNVSRLNKREFSLRLESAAPSQTSVYFCASSDESYGYYGYTFGSGTRLTVV
- binding result (SMC1B peptide on HLA): recognises

B12: TCR of SEQ ID NOs 497 and 498 (TCR, V domains shown)
Valpha: KQEVTQIPAALSVPEGENLVLNCSFTDSAIYNLQWFRQDPGKGLTSLLLIQSSQREQTSGRLNASLDKSSGRSTLYIAASQPGDSATYLCAARYNFNKFYFGSGTKLNVKP
Vbeta: NAGVTQTPKFQVLKTGQSMTLLCAQDMNHEYMYWYRQDPGMGLRLIHYSVGEGTTAKGEVPDGYNVSRSTTEDFPLRLLSAAPSQTSVYFCASSYTPGPSHEQYFGPGTRLTVT
- binding result (PIWIL1 peptide on HLA [5]): recognises

B14: TCR of SEQ ID NOs 525 and 526 (TCR, V domains shown)
Valpha: QKEVEQNSGPLSVPEGAIASLNCTYSDRGSQSFFWYRQYSGKSPELIMFIYSNGDKEDGRFTAQLNKASQYVSLLIRDSQPSDSATYLCAVGGYQKVTFGTGTKLQVIP
Vbeta: NAGVTQTPKFGILKIGQSMTLQCAQDMNHNYMYWYRQDPGMGLKLIYYSVGAGITDKGEVPNGYNVSRSTTEDFPLRLELAAPSQTSVYFCASRVDSYNEQFFGPGTRLTVL
- binding result (RLN1 peptide on HLA): recognises

Second part, the binder after the results:

- binding result (PIWIL1 peptide on HLA [1]): recognises
B1: TCR of SEQ ID NOs 503 and 504 (TCR, V domains shown)
Valpha: QKEVEQNSGPLSVPEGAIASLNCTYSDRGSQSFFWYRQYSGKSPELIMFIYSNGDKEDGRFTAQLNKASQYVSLLIRDSQPSDSATYLCAVMGNTDKLIFGTGTRLQVFP
Vbeta: NAGVTQTPKFQVLKTGQSMTLQCAQDMNHEYMSWYRQDPGMGLRLIHYSVGAGITDQGEVPNGYNVSRSTTEDFPLRLLSAAPSQTSVYFCASSYGVGSPLHFGNGTRLTVT

- binding result (PAEP peptide on HLA [3]): recognises
B4: TCR of SEQ ID NOs 477 and 478 (TCR, V domains shown)
Valpha: QKEVEQNSGPLSVPEGAIASLNCTYSDRGSQSFFWYRQYSGKSPELIMSIYSNGDKEDGRFTAQLNKASQYVSLLIRDSQPSDSATYLCAVSGSARQLTFGSGTQLTVLP
Vbeta: DGGITQSPKYLFRKEGQNVTLSCEQNLNHDAMYWYRQDPGQGLRLIYYSQIVNDFQKGDIAEGYSVSREKKESFPLTVTSAQKNPTAFYLCASSPFADDSYGYTFGSGTRLTVV

- binding result (PAEP peptide on HLA [4]): recognises
B6: TCR of SEQ ID NOs 483 and 484 (TCR, V domains shown)
Valpha: ELKVEQNPLFLSMQEGKNYTIYCNYSTTSDRLYWYRQDPGKSLESLFVLLSNGAVKQEGRLMASLDTKARLSTLHITAAVHDLSATYFCAVGAYSGAGSYQLTFGKGTKLSVIP
Vbeta: NAGVIQNPRHLVRRRGQEARLRCSPMKGHSHVYWYRQLPEEGLKFMVYLQKENIIDESGMPKERFSAEFPKEGPSILRIQQVVRGDSAAYFCASSKYPAGEANEKLFFGSGTQLSVL

- binding result (PIWIL1 peptide on HLA [2]): recognises
B7: TCR of SEQ ID NOs 513 and 514 (TCR, V domains shown)
Valpha: KQEVTQIPAALSVPEGENLVLNCSFTDSAIYNLQWFRQDPGKGLTSLLLIQSSQREQTSGRLNASLDKSSGRSTLYIAASQPGDSATYLCAVGGYNKLIFGAGTRLAVHP
Vbeta: NAGVTQTPKFRVLKTGQSMTLLCAQDMNHEYMYWYRQDPGMGLRLIHYSVGAGITDQGEVPNGYNVSRSTTEDFPLRLLSAAPSQTSVYFCASRATGLTEAFFGQGTRLTVV

- binding result (PIWIL1 peptide on HLA [5]): recognises
B13: TCR of SEQ ID NOs 499 and 500 (TCR, V domains shown)
Valpha: KQEVTQIPAALSVPEGENLVLNCSFTDSAIYNLQWFRQDPGKGLTSLLLIQSSQREQTSGRLNASLDKSSGRSTLYIAASQPGDSATYLCAVIDRAYSGAGSYQLTFGKGTKLSVIP
Vbeta: NAGVTQTPKFRILKIGQSMTLQCTQDMNHNYMYWYRQDPGMGLKLIHYSVGAGITDQGEVPNGYNVSRSTTEDFPLRLLSAAPSQTSVYFCASSLGVSYNEQFFGPGTRLTVL

- binding result (XAGE1 peptide on HLA): recognises
B15: TCR of SEQ ID NOs 611 and 612 (TCR, V domains shown)
Valpha: KQEVTQIPAALSVPEGENLVLNCSFTDSAIYNLQWFRQDPGKGLTSLLLIQSSQREQTSGRLNASLDKSSGRSTLYIAASQPGDSATYLCAVRPRGDSSYKLIFGSGTRLLVRP
Vbeta: DGGITQSPKYLFRKEGQNVTLSCEQNLNHDAMYWYRQDPGQGLRLIYYSQIVNDFQKGDIAEGYSVSREKKESFPLTVTSAQKNPTAFYLCASSASGSIYNEQFFGPGTRLTVL
